Columns and labels:
[1] = biological target: Histone H3-BSA 2.7x peptide-protein conjugate (bovine); assay: RPA, normal assay
[2] = biological target: Histone H3 recombinant protein, calf, Roche 11 034 758 001 (calf) (UniProt P68432); assay: RPA, normal assay
[3] = biological target: Histone H3 recombinant protein, human, Upstate 14-494 (human) (UniProt P68431); assay: RPA, normal assay
[4] = biological target: Erk1-BSA 2.7x peptide-protein conjugate (human; bovine); assay: RPA, normal assay
[5] = biological target: ERK1 (p44) inactive (GST tagged), human, Invitrogen PV 3312 (human) (UniProt P27361); assay: RPA, normal assay
[6] = biological target: ERK1 (p44), human, Cell Signaling Technology 7416 (human) (UniProt P27361); assay: RPA, competition: +recombinant protein 10 nM (not named)
[7] = biological target: ERK2 (p42), human, Biosource PHO 0104 (human) (UniProt P28482); assay: as above
[8] = biological target: Histone H3-BSA 2.7x peptide-protein conjugate (bovine); assay: as above
[9] = biological target: Histone H3 recombinant protein, calf, Roche 11 034 758 001 (calf) (UniProt P68432); assay: as above
[10] = biological target: pRb-BSA 1x peptide-protein conjugate (bovine); assay: as above
[11] = biological target: ERK1 (p44) active (GST tagged), human, Invitrogen PV 3311 (human) (UniProt P27361); assay: as above
[12] = biological target: Histone H3 recombinant protein, human, Upstate 14-494 (human) (UniProt P68431); assay: as above
[13] = biological target: ERK1 (p42) active (phospho), human, Active Motif 31 152 (human) (UniProt P27361); assay: as above
[14] = biological target: pErk1/2-BSA 2.7x peptide-protein conjugate (human; bovine); assay: as above
[15] = biological target: pRb recombinant protein, human, Active Motif 31 128 (human) (UniProt P06400); assay: as above
[16] = biological target: Erk1-BSA 2.7x peptide-protein conjugate (human; bovine); assay: as above
[17] = biological target: ERK1 (p44) inactive (GST tagged), human, Invitrogen PV 3312 (human) (UniProt P27361); assay: as above
[18] = biological target: ERK1 (p44), human, Cell Signaling Technology 7416 (human) (UniProt P27361); assay: RPA, competition: +recombinant protein 100 nM (not named)
[19] = biological target: ERK2 (p42), human, Biosource PHO 0104 (human) (UniProt P28482); assay: as above
[20] = biological target: Histone H3-BSA 2.7x peptide-protein conjugate (bovine); assay: as above
[21] = biological target: Histone H3 recombinant protein, calf, Roche 11 034 758 001 (calf) (UniProt P68432); assay: as above
[22] = biological target: pRb-BSA 1x peptide-protein conjugate (bovine); assay: as above
[23] = biological target: ERK1 (p44) active (GST tagged), human, Invitrogen PV 3311 (human) (UniProt P27361); assay: as above
[24] = biological target: Histone H3 recombinant protein, human, Upstate 14-494 (human) (UniProt P68431); assay: as above
[25] = biological target: ERK1 (p42) active (phospho), human, Active Motif 31 152 (human) (UniProt P27361); assay: as above
[26] = biological target: pErk1/2-BSA 2.7x peptide-protein conjugate (human; bovine); assay: as above
[27] = biological target: pRb recombinant protein, human, Active Motif 31 128 (human) (UniProt P06400); assay: as above
[28] = biological target: Erk1-BSA 2.7x peptide-protein conjugate (human; bovine); assay: as above
[29] = biological target: ERK1 (p44) inactive (GST tagged), human, Invitrogen PV 3312 (human) (UniProt P27361); assay: as above
[30] = biological target: ERK1 (p44), human, Cell Signaling Technology 7416 (human) (UniProt P27361); assay: RPA, normal assay
[31] = biological target: ERK2 (p42), human, Biosource PHO 0104 (human) (UniProt P28482); assay: RPA, normal assay
[32] = biological target: pRb-BSA 1x peptide-protein conjugate (bovine); assay: RPA, normal assay
[33] = biological target: ERK1 (p44) active (GST tagged), human, Invitrogen PV 3311 (human) (UniProt P27361); assay: RPA, normal assay
[34] = biological target: ERK1 (p42) active (phospho), human, Active Motif 31 152 (human) (UniProt P27361); assay: RPA, normal assay
[35] = biological target: pRb recombinant protein, human, Active Motif 31 128 (human) (UniProt P06400); assay: RPA, normal assay
[36] = biological target: ERK1 (p44) active (GST tagged), human, Invitrogen PV 3311 (human) (UniProt P27361); assay: RPA standard curve, assay 2, LOD back-calculated from one-site fit
[37] = biological target: ERK1 (p44) active (GST tagged), human, Invitrogen PV 3311 (human) (UniProt P27361); assay: RPA standard curve, assay 1, LOD back-calculated from one-site fit
[38] = biological target: ERK1 (p44) active (GST tagged), human, Invitrogen PV 3311 (human) (UniProt P27361); assay: RPA standard curves, mean of duplicate assays

pRb-BSA 1x peptide-protein conjugate (bovine), sequence (P02769 25-607 limits assumed): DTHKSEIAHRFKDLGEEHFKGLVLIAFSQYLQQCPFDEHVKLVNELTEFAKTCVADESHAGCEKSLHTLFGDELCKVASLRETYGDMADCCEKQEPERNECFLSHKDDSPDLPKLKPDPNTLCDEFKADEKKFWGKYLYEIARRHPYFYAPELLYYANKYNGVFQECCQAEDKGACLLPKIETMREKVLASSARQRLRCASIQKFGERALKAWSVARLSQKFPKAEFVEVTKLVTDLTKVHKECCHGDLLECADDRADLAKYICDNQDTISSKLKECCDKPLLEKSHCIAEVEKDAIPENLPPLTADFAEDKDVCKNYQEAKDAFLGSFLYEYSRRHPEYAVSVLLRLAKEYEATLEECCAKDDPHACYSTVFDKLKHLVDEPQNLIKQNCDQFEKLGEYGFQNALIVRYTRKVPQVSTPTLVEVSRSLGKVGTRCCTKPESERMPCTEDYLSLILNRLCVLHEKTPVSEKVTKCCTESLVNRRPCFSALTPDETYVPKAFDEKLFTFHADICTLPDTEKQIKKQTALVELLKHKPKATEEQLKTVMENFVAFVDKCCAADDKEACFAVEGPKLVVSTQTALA
Histone H3-BSA 2.7x peptide-protein conjugate (bovine), sequence (P02769 25-607 limits assumed): as above
pErk1/2-BSA 2.7x peptide-protein conjugate (human; bovine), sequence (P02769 25-607 limits assumed): as above
Erk1-BSA 2.7x peptide-protein conjugate (human; bovine), sequence (peptide, as listed by the source limits assumed, chain 1 of 2): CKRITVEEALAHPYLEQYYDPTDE
Erk1-BSA 2.7x peptide-protein conjugate (human; bovine), sequence (P02769 25-607 limits assumed, chain 2 of 2): as the sequence (P02769 25-607 limits assumed) above
UniProt P06400, sequence (P06400 whole entry): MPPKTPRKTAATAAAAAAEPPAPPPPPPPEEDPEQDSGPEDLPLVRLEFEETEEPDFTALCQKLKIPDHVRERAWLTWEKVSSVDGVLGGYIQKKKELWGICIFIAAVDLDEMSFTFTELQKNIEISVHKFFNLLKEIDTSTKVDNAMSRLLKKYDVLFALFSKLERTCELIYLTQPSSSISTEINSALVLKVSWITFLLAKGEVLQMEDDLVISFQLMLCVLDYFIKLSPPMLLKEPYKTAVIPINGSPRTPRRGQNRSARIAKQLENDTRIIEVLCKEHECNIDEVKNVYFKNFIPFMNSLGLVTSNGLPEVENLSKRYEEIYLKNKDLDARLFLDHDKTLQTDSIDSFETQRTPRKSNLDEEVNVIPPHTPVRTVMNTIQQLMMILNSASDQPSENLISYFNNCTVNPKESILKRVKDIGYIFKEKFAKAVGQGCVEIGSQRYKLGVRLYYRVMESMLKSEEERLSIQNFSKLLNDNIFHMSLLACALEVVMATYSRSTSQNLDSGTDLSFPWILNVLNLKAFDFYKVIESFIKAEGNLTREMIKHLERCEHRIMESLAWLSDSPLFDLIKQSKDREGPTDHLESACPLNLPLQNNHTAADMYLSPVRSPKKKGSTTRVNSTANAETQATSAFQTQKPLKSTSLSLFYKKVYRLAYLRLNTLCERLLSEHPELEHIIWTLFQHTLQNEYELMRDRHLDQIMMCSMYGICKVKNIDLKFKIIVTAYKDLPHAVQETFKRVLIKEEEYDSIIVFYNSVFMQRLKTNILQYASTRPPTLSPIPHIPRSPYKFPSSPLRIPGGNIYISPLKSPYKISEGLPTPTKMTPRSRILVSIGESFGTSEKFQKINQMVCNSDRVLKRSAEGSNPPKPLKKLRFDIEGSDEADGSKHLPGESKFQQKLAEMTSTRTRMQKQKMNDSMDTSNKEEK
UniProt P28482, sequence (P28482 2-360 limits assumed): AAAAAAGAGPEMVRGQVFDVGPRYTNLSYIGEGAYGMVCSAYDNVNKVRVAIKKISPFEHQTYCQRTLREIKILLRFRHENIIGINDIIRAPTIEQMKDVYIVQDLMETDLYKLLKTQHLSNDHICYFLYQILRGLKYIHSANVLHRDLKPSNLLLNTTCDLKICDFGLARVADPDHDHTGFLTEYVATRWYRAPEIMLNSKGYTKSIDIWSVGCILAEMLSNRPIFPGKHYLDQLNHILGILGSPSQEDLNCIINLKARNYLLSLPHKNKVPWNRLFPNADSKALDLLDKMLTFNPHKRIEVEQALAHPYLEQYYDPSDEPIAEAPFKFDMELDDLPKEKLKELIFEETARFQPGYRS

Substance	maximum standard curve signal [1] [RFI]	maximum standard curve signal [2] [RFI]	maximum standard curve signal [3] [RFI]	maximum standard curve signal [4] [RFI]	maximum standard curve signal [5] [RFI]	maximum standard curve signal [6] [RFI]	maximum standard curve signal [7] [RFI]	maximum standard curve signal [8] [RFI]	maximum standard curve signal [9] [RFI]	maximum standard curve signal [10] [RFI]	maximum standard curve signal [11] [RFI]	maximum standard curve signal [12] [RFI]	maximum standard curve signal [13] [RFI]	maximum standard curve signal [14] [RFI]	maximum standard curve signal [15] [RFI]	maximum standard curve signal [16] [RFI]	maximum standard curve signal [17] [RFI]	maximum standard curve signal [18] [RFI]	maximum standard curve signal [19] [RFI]	maximum standard curve signal [20] [RFI]	other results
Histone H3 antibody, Abcam ab1791	5.38	0.43	11.2	0.01	0.02	2.19	2.3	3.93	2.5	2.57	2.2	3.16	2.4	2.57	2.77	2.8	2.54	1.8	1.56	1.68	maximum standard curve signal [21]: 2.56 RFI; maximum standard curve signal [22]: 2.46 RFI; maximum standard curve signal [23]: 1.37 RFI; maximum standard curve signal [24]: 2.09 RFI; maximum standard curve signal [25]: 1.87 RFI; maximum standard curve signal [26]: 1.81 RFI; maximum standard curve signal [27]: 2.28 RFI; maximum standard curve signal [28]: 1.42 RFI; maximum standard curve signal [29]: 1.32 RFI
p44/42 MAPK (Erk1/2) antibody, Biosource 44-654G	0.04	0.02	–	8.24	10.9	0.15	0.9	0.13	0.07	0.1	3.88	0.09	0.31	0.08	0.11	7.88	5.17	0.16	0.18	0.22	maximum standard curve signal [30]: 0.28 RFI; maximum standard curve signal [31]: 3.57 RFI; maximum standard curve signal [32]: 0.03 RFI; maximum standard curve signal [33]: 10.4 RFI; maximum standard curve signal [34]: 1.17 RFI; maximum standard curve signal [35]: 0.02 RFI; LOD [36]: 0.047 nM; LOD [37]: 0.04 nM; mean LOD [38]: 0.044 nM; maximum standard curve signal [21]: 0.15 RFI; maximum standard curve signal [22]: 0.16 RFI; maximum standard curve signal [23]: 0.32 RFI; maximum standard curve signal [24]: 0.16 RFI; maximum standard curve signal [25]: 0.15 RFI; maximum standard curve signal [26]: 0.14 RFI; maximum standard curve signal [27]: 0.17 RFI; maximum standard curve signal [28]: 5.69 RFI; maximum standard curve signal [29]: 0.38 RFI
p44/42 MAPK phospho (pERK1/2) Thr202/Tyr204 antibody, Cell Signaling Technology #9101	0.11	0.01	0.01	0.02	0.23	–	–	–	–	–	–	–	–	–	–	–	–	–	–	–	maximum standard curve signal [30]: 0.04 RFI; maximum standard curve signal [31]: 0.01 RFI; maximum standard curve signal [32]: 0.01 RFI; maximum standard curve signal [33]: 1.66 RFI; maximum standard curve signal [34]: 0.19 RFI; maximum standard curve signal [35]: 0.01 RFI; LOD [36]: 0.052 nM; LOD [37]: 0.058 nM; mean LOD [38]: 0.055 nM

Source: US20120220489A1
